± gives the standard deviation of the averaged measurements.
Experiment: total protein half-life in vivo (active degradation + dilution); higher = more stable protein
[1] = E. coli NCM3722 delta-clpP delta-lon delta-hslV, growth: N-lim chemostat, doubling time 6 h
[2] = E. coli NCM3722 delta-clpP, growth: N-lim chemostat, doubling time 6 h
[3] = E. coli NCM3722 delta-hslV, growth: N-lim chemostat, doubling time 6 h
[4] = E. coli NCM3722 delta-lon, growth: N-lim chemostat, doubling time 6 h
[5] = E. coli NCM3722 delta-smpB, growth: N-lim chemostat, doubling time 6 h
[6] = wild type E. coli NCM3722, growth: C-lim chemostat, doubling time 3 h
[7] = wild type E. coli NCM3722, growth: C-lim chemostat, doubling time 6 h
[8] = wild type E. coli NCM3722, growth: C-lim chemostat, doubling time 12 h
[9] = wild type E. coli NCM3722, growth: N-lim chemostat, doubling time 6 h
[10] = wild type E. coli NCM3722, growth: N-lim chemostat, doubling time 12 h
[11] = wild type E. coli NCM3722, growth: P-lim chemostat, doubling time 6 h
[12] = wild type E. coli NCM3722, growth: P-lim chemostat, doubling time 12 h

Row | Sequence | total protein half-life in vivo [1] | total protein half-life in vivo [2] | total protein half-life in vivo [3] | total protein half-life in vivo [4] | total protein half-life in vivo [5] | total protein half-life in vivo [6] | total protein half-life in vivo [7] | total protein half-life in vivo [8] | total protein half-life in vivo [9] | total protein half-life in vivo [10] | total protein half-life in vivo [11] | total protein half-life in vivo [12]
1 | MKLQNSFRDYTAESALFVRRALVAFLGILLLTGVLIANLYNLQIVRFTDYQTRSNENRIKLVPIAPSRGIIYDRNGIPLALNRTIYQIEMMPEKVDNVQQTLDALRSVVDLTDDDIAAFRKERARSHRFTSIPVKTNLTEVQVARFAVNQYRFPGVEVKGYKRRYYPYGSALTHVIGYVSKINDKDVERLNNDGKLANYAATHDIGKLGIERYYEDVLHGQTGYEEVEVNNRGRVIRQLKEVPPQAGHDIYLTLDLKLQQYIETLLAGSRAAVVVTDPRTGGVLALVSTPSYDPNLFVDGISSKDYSALLNDPNTPLVNRATQGVYPPASTVKPYVAVSALSAGVITRNTTLFDPGWWQLPGSEKRYRDWKKWGHGRLNVTRSLEESADTFFYQVAYDMGIDRLSEWMGKFGYGHYTGIDLAEERSGNMPTREWKQKRFKKPWYQGDTIPVGIGQGYWTATPIQMSKALMILINDGIVKVPHLLMSTAEDGKQVPWVQPHEPPVGDIHSGYWELAKDGMYGVANRPNGTAHKYFASAPYKIAAKSGTAQVFGLKANETYNAHKIAERLRDHKLMTAFAPYNNPQVAVAMILENGGAGPAVGTLMRQILDHIMLGDNNTDLPAENPAVAAAEDH [P0AD65] | 7.59 ± 0.27 h | 6.61 ± 0.79 h | 6.75 ± 0.56 h | 6.37 ± 0.078 h | 5.71 ± 0.077 h | 3.03 ± 0.031 h | 6.92 ± 1.1 h | 11.8 ± 0.77 h | 6.5 ± 0.79 h | 13.4 ± 0.88 h | 6.24 ± 0.3 h | 13.7 ± 1 h
2 | MKLRDSLAENKSIRLQAEAETWQEAVKIGVDLLVAADVVEPRYYQAILDGVEQFGPYFVIAPGLAMPHGRPEEGVKKTGFSLVTLKKPLEFNHDDNDPVDILITMAAVDANTHQEVGIMQIVNLFEDEENFDRLRACRTEQEVLDLIDRTNAAA | – | – | – | – | 3.07 h | 3.32 ± 0.71 h | 3.97 ± 0.22 h | 7.31 h | 3.02 h | – | 4.94 ± 0.59 h | 7.637 ± 0.049 h
3 | MKLSRISAINWNKISDDKDLEVWNRLTSNFWLPEKVPLSNDIPAWQTLTVVEQQLTMRVFTGLTLLDTLQNVIGAPSLMPDALTPHEEAVLSNISFMEAVHARSYSSIFSTLCQTKDVDAAYAWSEENAPLQRKAQIIQQHYRGDDPLKKKIASVFLESFLFYSGFWLPMYFSSRGKLTNTADLIRLIIRDEAVHGYYIGYKYQKNMEKISLGQREELKSFAFDLLLELYDNELQYTDELYAETPWADDVKAFLCYNANKALMNLGYEPLFPAEMAEVNPAILAALSPNADENHDFFSGSGSSYVMGKAVETEDEDWNF | 3.43 ± 1.1 h | 3.14 ± 0.99 h | – | – | 2.03 h | 2.18 ± 0.23 h | 3.25 ± 0.41 h | 4.27 h | 1.85 h | – | – | 6.6 h
4 | MKLTDADNAADGIFFPALEQNMMGAVLINENDEVMFFNPAAEKLWGYKREEVIGNNIDMLIPRDLRPAHPEYIRHNREGGKARVEGMSRELQLEKKDGSKIWTRFALSKVSAEGKVYYLALVRDASVEMAQKEQTRQLIIAVDHLDRPVIVLDPERHIVQCNRAFTEMFGYCISEASGMQPDTLLNIPEFPADNRIRLQQLLWKTARDQDEFLLLTRTGEKIWIKASISPVYDVLAHLQNLVMTFSDITEERQIRQLEGNILAAMCSSPPFHEMGEIICRNIESVLNESHVSLFALRNGMPIHWASSSHGAEIQNAQSWSATIRQRDGAPAGILQIKTSSGAETSAFIERVADISQHMAALALEQEKSRQHIEQLIQFDPMTGLPNRNNLHNYLDDLVDKAVSPVVYLIGVDHIQDVIDSLGYAWADQALLEVVNRFREKLKPDQYLCRIEGTQFVLVSLENDVSNITQIADELRNVVSKPIMIDDKPFPLTLSIGISYDLGKNRDYLLSTAHNAMDYIRKNGGNGWQFFSPAMNEMVKERLVLGAALKEAISNNQLKLVYQPQIFAETGELYGIEALARWHDPLHGHVPPSRFIPLAEEIGEIENIGRWVIAEACRQLAEWRSQNIHIPALSVNLSALHFRSNQLPNQVSDAMHAWGIDGHQLTVEITESMMMEHDTEIFKRIQILRDMGVGLSVDDFGTGFSGLSRLVSLPVTEIKIDKSFVDRCLTEKRILALLEAITSIGQSLNLTVVAEGVETKEQFEMLRKIHCRVIQGYFFSRPLPAEEIPGWMSSVLPLKI | 5.66 ± 0.45 h | 3.42 ± 0.28 h | 4.21 ± 0.49 h | 3.8 ± 0.26 h | 3.55 ± 0.9 h | 1.63 ± 0.42 h | 4.27 ± 0.69 h | 6.85 ± 0.2 h | 4.01 ± 0.26 h | 7.043 ± 0.059 h | 2.56 ± 0.83 h | 4.93 ± 0.014 h
5 | MKLTIIRLEKFSDQDRIDLQKIWPEYSPSSLQVDDNHRIYAARFNERLLAAVRVTLSGTEGALDSLRVREVTRRRGVGQYLLEEVLRNNPGVSCWWMADAGVEDRGVMTAFMQALGFTAQQGGWEKC | 4.23 ± 0.29 h | 3.9 ± 0.53 h | 5.19 h | – | 3.46 ± 0.21 h | – | 6.2 ± 1.2 h | 11.91 ± 0.065 h | 3.31 h | 6.11 ± 1.4 h | 5.99 ± 0.11 h | 12.9 ± 2.6 h
6 | MKLTLKNLSMAIMMSTIVMGSSAMAADSNEKIVIAHRGASGYLPEHTLPAKAMAYAQGADYLEQDLVMTKDDNLVVLHDHYLDRVTDVADRFPDRARKDGRYYAIDFTLDEIKSLKFTEGFDIENGKKVQTYPGRFPMGKSDFRVHTFEEEIEFVQGLNHSTGKNIGIYPEIKAPWFHHQEGKDIAAKTLEVLKKYGYTGKDDKVYLQCFDADELKRIKNELEPKMGMELNLVQLIAYTDWNETQQKQPDGSWVNYNYDWMFKPGAMKQVAEYADGIGPDYHMLIEETSQPGNIKLTGMVQDAQQNKLVVHPYTVRSDKLPEYTPDVNQLYDALYNKAGVNGLFTDFPDKAVKFLNKE | 5.71 ± 0.74 h | 6.03 ± 0.55 h | 5.36 ± 0.34 h | 7.08 ± 0.86 h | 4.739 ± 0.036 h | 3.12 ± 0.32 h | 6.48 ± 0.5 h | 11.4 ± 0.14 h | 5.53 ± 0.091 h | 10.9 ± 1.6 h | 5.23 ± 0.11 h | 11.7 ± 0.17 h
7 | MKLTTHHLRTGAALLLAGILLAGCDQSSSDAKHIKVGVINGAEQDVAEVAKKVAKEKYGLDVELVGFSGSLLPNDATNHGELDANVFQHRPFLEQDNQAHGYKLVAVGNTFVFPMAGYSKKIKTVAQIKEGATVAIPNDPTNLGRALLLLQKEKLITLKEGKGLLPTALDITDNPRHLQIMELEGAQLPRVLDDPKVDVAIISTTYIQQTGLSPVHDSVFIEDKNSPYVNILVAREDNKNAENVKEFLQSYQSPEVAKAAETIFNGGAVPGW | 5.58 ± 0.19 h | 6.82 ± 1.4 h | – | 6.47 ± 0.86 h | 6.67 ± 0.91 h | 2.86 ± 0.047 h | 5.49 ± 0.059 h | 10.7 ± 1.3 h | 5.44 ± 0.46 h | 12.6 ± 2.8 h | 5.38 ± 0.23 h | 10.6 ± 0.015 h

— the supplement of paper PMC11246515
